Source: patent US5834273A, “Heat-stable and water soluble modified enzymes” (Wako Pure Chemical Industries, Ltd., priority 1991, dated 1998)

Molecular target: T1, XOD (Bos taurus, UniProt P80457)
T1 construct: purchased Boehringer Mannheim GmbH
Assay: Thermal stability of XOD
Assay type: physicochemical, cow
Conditions: 75 min, pH 7.0, 0.2 U/ml
Experimental: Measuring Method of XOD Activity
The method described in Method of Enzymatic Analysis, vol. 3, pages 212, 1983.
To 2 ml of aqueous solution containing 5 mg of pyromellitic acid-modified dextran obtained in Example 1(1), 65 mg of WSC was added. To the resulting solution maintained at pH 6.0 using a pH-stat, 0.5 ml of 10 mM phosphate buffer solution (pH 7.0) containing 10 mg of XOD (mfd. by Boehringer Mannheim GmbH., derived from cow milk) was added and reacted at 50° C. for 24 hours.
The thus obtained modified XOD and the intact XOD were dissolved in 20 mM phosphate buffer solution (pH 7.0) in an amount of 0.2 U/ml, respectively,and stored at a predetermined temperature for 75 min. to measure the change of residual activity.

T1 sequence (P80457 whole entry): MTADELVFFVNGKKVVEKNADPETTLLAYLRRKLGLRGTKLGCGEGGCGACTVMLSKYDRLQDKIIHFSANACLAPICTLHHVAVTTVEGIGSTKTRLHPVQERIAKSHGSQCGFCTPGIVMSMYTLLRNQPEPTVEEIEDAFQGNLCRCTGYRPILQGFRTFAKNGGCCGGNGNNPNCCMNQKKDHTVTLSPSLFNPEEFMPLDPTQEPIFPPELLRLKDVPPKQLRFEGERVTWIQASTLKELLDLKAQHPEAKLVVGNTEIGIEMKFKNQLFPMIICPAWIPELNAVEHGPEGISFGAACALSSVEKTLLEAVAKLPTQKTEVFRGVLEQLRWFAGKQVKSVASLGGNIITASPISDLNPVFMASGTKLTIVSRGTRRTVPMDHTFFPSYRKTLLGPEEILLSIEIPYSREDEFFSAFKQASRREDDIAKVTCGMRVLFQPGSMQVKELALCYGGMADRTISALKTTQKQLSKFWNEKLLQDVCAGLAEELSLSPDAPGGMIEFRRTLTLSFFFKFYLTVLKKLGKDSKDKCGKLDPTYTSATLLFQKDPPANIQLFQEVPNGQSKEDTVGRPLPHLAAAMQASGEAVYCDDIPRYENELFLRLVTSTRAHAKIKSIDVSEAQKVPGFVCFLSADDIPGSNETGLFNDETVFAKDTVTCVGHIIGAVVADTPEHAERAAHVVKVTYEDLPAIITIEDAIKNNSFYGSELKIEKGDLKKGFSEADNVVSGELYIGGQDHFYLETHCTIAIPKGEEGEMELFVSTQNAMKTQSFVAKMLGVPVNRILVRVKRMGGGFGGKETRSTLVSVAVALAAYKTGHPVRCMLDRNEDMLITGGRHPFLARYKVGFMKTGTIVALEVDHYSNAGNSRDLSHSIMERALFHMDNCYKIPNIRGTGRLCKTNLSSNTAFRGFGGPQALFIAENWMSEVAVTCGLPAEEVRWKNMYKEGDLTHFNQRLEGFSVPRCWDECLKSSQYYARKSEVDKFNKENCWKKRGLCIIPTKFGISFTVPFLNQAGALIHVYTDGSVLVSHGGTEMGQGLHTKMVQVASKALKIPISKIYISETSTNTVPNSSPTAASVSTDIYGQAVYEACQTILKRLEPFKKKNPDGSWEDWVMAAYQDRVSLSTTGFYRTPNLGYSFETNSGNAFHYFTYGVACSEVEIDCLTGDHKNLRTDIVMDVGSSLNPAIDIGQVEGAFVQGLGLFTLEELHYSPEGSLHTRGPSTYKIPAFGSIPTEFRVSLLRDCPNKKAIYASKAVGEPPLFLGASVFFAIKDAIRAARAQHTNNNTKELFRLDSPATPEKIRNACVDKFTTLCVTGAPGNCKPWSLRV

Intact XOD: xanthine oxidase (E.C.1.2.3.2), mfd. by Boehringer Mannheim GmbH., derived from cow milk
Residual activity (56 °C): 40.5%
Residual activity (58 °C): 31.2%
Residual activity (60 °C): 23.4%
